# Measurements as given in the supplement of paper PMC10567573.
# ± gives the standard deviation.
# Assay: protein stability index of a GFP-peptide fusion (GPS, HEK-293T) (PSI 1-6); higher = more stable
# Conditions: c terminus: a fixed tail appended
# 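Note: 24-mer peptide tiles fused after GFP, lentivirally expressed, FACS-sorted into six equal bins by GFP/DsRed ratio, decoded by Illumina sequencing, PSI is the read-weighted mean bin number.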
Sequence,protein stability index (treatment: DMSO),"protein stability index (treatment: MLN4924 1 uM, 8 h)"
LISGVTLDNCVEVGRIANTYNLTE [KLHL13],2.89 ± 0.18,2.77 ± 0.15
LKALTRNVNRLNESFRDLQLRLLQ [SCARA5],2.37 ± 0.38,2.13 ± 0.46
LKDVKSTLEKCEKVKTMEVTSVSI [TRIM39],3.92 ± 0.16,3.89 ± 0.17
LKNTPRFKRRRVRRRRMETIVFLD [PCMTD2],2.9 ± 0.19,3.33 ± 0.3
LKTADWRVFLFQAPSKEEMLSWIL [PSD2],2.16 ± 0.57,2.04 ± 0.38
LKTSNLPEELRKVFITYSMDTAME [TRAF3IP2],2.41 ± 0.28,2.43 ± 0.56
LKVTGKPDAETLKVMKQPRCGVPD [MMP1],4.47 ± 0.3,4.49 ± 0.15
LLAYLIRNGSERVVTSAREHIYDL [CLINT1],2.85 ± 0.33,2.41 ± 0.28
LLSDVRFVLGKGRGAAAAGGPQRI [BTBD1],2.85 ± 0.63,3.04 ± 0.27
LLTLPRPPLSGALASITETIQVHR [HDAC6],3.12 ± 0.13,3.22 ± 0.28
LLTLRNSAQAPPDSISLHQPCNPP [DMRTC1],3.62 ± 0.14,3.82 ± 0.15
LLYDRGTKFGLFTPGSRIESILMS [CPOX],2.45 ± 0.46,2.14 ± 0.42
LNAYMKSLLSLPVWVLMDEDVRIF [NCF4],3.17 ± 0.86,2.54 ± 0.46
LNDQNLCIPASSSFVYGAVPIGAS [GAN],3.07 ± 0.16,3.13 ± 0.17
LNLEEDRIQIWFQNRRAKLKRSHR [HESX1],2.86 ± 0.18,3.16 ± 0.36
LNVHDLDSEQNGQVTCSILAYLPF [PCDHGA10],2.24 ± 0.22,2.19 ± 0.41
LPEDDGLEQDLQQVMVSGPNLNET [ARFIP2],5.32 ± 0.32,5.43 ± 0.13
LPFRDASFGNCTYNLTILDCLQGI [CDC14A],2.44 ± 0.59,2.71 ± 0.49
LPKVLQKYWCVTATRVAPERLFGS [ZBED1],2.47 ± 0.65,2.2 ± 0.21
LPLETARESPSFKLEPMETERSPG [ZNF263],5.24 ± 0.13,5.36 ± 0.13
LPLLESCSVRPDASVSSHRFFGPN [TCF25],3.17 ± 0.24,3.27 ± 0.26
LPNHRAAKRLWKVCVEHHTFFRLL [EPB41L3],2.42 ± 0.34,2.36 ± 0.13

Sequence,protein stability index (treatment: DMSO),"protein stability index (treatment: MLN4924 1 uM, 8 h)"
LQAESPPVDPDSQADTVHSNPELD [DNAAF3],5.7 ± 0.17,5.63 ± 0.27
LQANDVFHKQQWFNCIRAAIAPFQ [NET1],2.14 ± 0.26,2.24 ± 0.28
LQAQKEELQSLMHQPKGLEEENAQ [PBXIP1],5.64 ± 0.29,5.45 ± 0.27
LQELKKLKNSNYESIQQTARSIAE [PPTC7],3.9 ± 0.51,3.76 ± 0.46
LQLGDGGGCTVGVAGEGVRRKGEM [TRIM15],4.71 ± 0.17,3.84 ± 0.45
LQMAVLVEKQADTLNVIELNVQKT [STX11],2.59 ± 0.22,2.67 ± 0.26
LQQAQAQFRMAQEEARRNRLMRDM [SMG5],3.89 ± 0.22,4.11 ± 0.27
LRDPLTSLSHTELEAAEVILEHAH [FCHSD1],4.29 ± 0.25,4.44 ± 0.32
LREKLRLREAEIARIRDEEAQRAS [LRRC45],4.17 ± 0.56,4.65 ± 0.18
LRENVPRVIMIVTDGRPQDSVAEV [MATN2],3.088 ± 0.005,3.09 ± 0.17
LRHSNPRADPLVCATGLLGSAPFL [SPNS1],2.28 ± 0.31,2.75 ± 0.39
LRPAKRELRGAEPGRPARLDQLLD [SPSB4],4.12 ± 0.2,4.03 ± 0.22
LRSPNNFLSYYRLTRFLSRVIKCD [CCND1],2.24 ± 0.42,2.44 ± 0.2
LSQRTITVGVYEAAKLLNVDPDNV [GADD45A],3.16 ± 0.29,3.14 ± 0.19
LSRAYDGTTYLPGIVGLNNIKAND [USP39],3.45 ± 0.24,3.54 ± 0.32
LSRKLMQLQHEKAELEQHLEQEQE [CCDC6],5.27 ± 0.27,5.02 ± 0.2
LSRKVAKLVHFLLLKYRAREPVTK [MAGEA6],2.7 ± 0.37,2.43 ± 0.67
LSTPDSQSLRCDLIRYICGVVHPS [INTS3],2.29 ± 0.46,2.29 ± 0.3
LTILPTEIETWVREHCPENRERVV [ZNF449],3.23 ± 0.2,3.42 ± 0.29
LTSRIKGDWIGLYRHFLKSPNFDG [DENND6A],2.01 ± 0.31,2.37 ± 0.35
LTVEGFQSWMWRGLTFLLPFLFFG [TMEM120A],2.98 ± 0.45,2.74 ± 0.035
LTYSTRMSQTVQRMLVAASWACAF [OR3A1],3.35 ± 0.71,3 ± 0.65
